This data set has as its target Hfq (His6-tagged) (UniProt P0A6X3). Briefly: EMSA. As to conditions: Single-RNA EMSA: 10 mM Tris-HCl pH 7.4, 0.1 mM EDTA, 10 mM NH4Cl, 10 mM NaCl, 10 mM KCl, 1 mg/ml tRNA, 4% glycerol, RT 5 min; ~40 fmol RNA (legend; Methods say …).

Chain of Hfq (His6-tagged) (P0A6X3 whole entry): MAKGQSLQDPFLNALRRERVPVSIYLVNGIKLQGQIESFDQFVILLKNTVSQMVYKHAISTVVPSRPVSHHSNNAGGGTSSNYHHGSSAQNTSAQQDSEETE

DppA mRNA 5' 166 nt (DppASal) yielded a binding signal (fold higher affinity than AgvB and GcvB) of 10.

(Values after article PMC4104026.)
